For data set [1], the system named is unknown -112 site binding nuclear protein. Kind of data set: EMSA. In general terms: A gel shift assay detects complexes by their altered migration in electrophoresis.
A further data set deals with T1, T/EBP/NKX2.1 (TTF1) (UniProt P23441).
T1 sequence: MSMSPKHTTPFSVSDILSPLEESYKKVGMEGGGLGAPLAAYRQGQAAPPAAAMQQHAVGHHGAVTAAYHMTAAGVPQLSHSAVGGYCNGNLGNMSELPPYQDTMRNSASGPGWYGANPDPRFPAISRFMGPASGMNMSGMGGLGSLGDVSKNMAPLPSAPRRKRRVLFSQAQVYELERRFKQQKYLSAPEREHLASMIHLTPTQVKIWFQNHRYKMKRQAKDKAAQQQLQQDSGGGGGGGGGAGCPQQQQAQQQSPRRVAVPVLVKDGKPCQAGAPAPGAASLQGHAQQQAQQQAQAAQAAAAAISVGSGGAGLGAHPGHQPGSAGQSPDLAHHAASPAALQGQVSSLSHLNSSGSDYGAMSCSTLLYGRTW
Kind of data set: cell_activity. As to conditions: luciferase.

Data set [2] concerns the molecule itself. In words: anti-c-myc immunoblot of COS-1 cell lysate and conditioned medium, non-reducing vs reducing SDS-PAGE; homodimer. The method, then:
Three forms of cDNAs encoding type A, B and C proteins were amplified by PCR and inserted into EcoRI and XhoI site of pcDNA3.1/Myc-His(+) A vector (Invitrogen). Transient transfection into COS-1 cells was performed using Effectene transfection reagent (Qiagen). After 2 days, cells and conditioned media were collected, separated on 13% SDS-polyacrylamide gels under reducing and non-reducing conditions, and electrophoretically transferred to nitrocellulose membrane (Schleicher & Schuell). The filter was incubated in PBS containing 5% skim milk, and then for 1 h with 250-fold diluted c-myc 9E10 […] antibody (Santa Cruz Biotechnology, Santa Cruz, Calif.). The filter was washed in PBS containing 0.1% Tween 20, incubated with horseradish peroxidase (HRP)-conjugated anti-rabbit IgG (Amersham Pharmacia Biotech), and then washed with the same buffer. Protein bands were detected using ECL Western blotting detection reagent (Amersham Pharmacia Biotech).
The polypeptides of uteroglobin/CCSP family members form a homodimer or heterodimer (Mukherjee et al., Cell Mol Life Sci 55:771-787, 1999). […] In contrast, no band corresponding to polypeptide C was ever detected in either the cell lysate or the medium under any conditions examined, despite the effort to keep the procedures of transient expression and immunoblot analyses consistent for all three polypeptides. […]

For -112G oligonucleotide, the binding signal (fold affinity vs -112A) in data set [1] (competition with unlabeled oligonucleotides) was 2. Consider -112A oligonucleotide, for which the binding signal (fold affinity vs -112G) in data set [1] (binds at same mobility, about 2-fold lower affinity) was 0.5. In the data set with T/EBP/NKX2.1 (TTF1) (HeLa cells), pGL3-147 mouse UGRP1 promoter reporter came in with an activity (fold activation) of 5. Take pGL3-190 mouse UGRP1 promoter reporter: in the data set with T/EBP/NKX2.1 (TTF1) (NCI-H441 cells), the activity (fold activation) turned out to be 4.

B1: Mouse UGRP1 type A polypeptide tagged with a c-myc epitope at the carboxyl-terminus, expressed in COS-1 cells (other, not shown: small tags and cut ends)
chain: LLINRLPVVDKLPVPLDDIIPSFDPLKMLLKTLGISVEHLVTGLKKCVDELGPEASEAVKKLLEALSHLV
notes: Type A is 91 amino acids; The protein was found as a homodimer under non-reducing conditions; also called polypeptide A
In the case of B1, in data set [2], the binding result is “binds”.

These data come from US20040234982A1 (published 2004).
